The text below walks through data of patent US20160075795A1 (Hoffmann-La Roche, published 2016).

Assay [1] deals with T1, membrane-bound human carcinoembryonic antigen (CEA) (human, UniProt P06731 35-685, GPI anchor at the C-terminus of the mature chain; heavily N-glycosylated. Neither can be carried in the letters.).
T1 construct: Target of the flow cytometry experiments; also called CEACAM-5; CD66e
T1 sequence: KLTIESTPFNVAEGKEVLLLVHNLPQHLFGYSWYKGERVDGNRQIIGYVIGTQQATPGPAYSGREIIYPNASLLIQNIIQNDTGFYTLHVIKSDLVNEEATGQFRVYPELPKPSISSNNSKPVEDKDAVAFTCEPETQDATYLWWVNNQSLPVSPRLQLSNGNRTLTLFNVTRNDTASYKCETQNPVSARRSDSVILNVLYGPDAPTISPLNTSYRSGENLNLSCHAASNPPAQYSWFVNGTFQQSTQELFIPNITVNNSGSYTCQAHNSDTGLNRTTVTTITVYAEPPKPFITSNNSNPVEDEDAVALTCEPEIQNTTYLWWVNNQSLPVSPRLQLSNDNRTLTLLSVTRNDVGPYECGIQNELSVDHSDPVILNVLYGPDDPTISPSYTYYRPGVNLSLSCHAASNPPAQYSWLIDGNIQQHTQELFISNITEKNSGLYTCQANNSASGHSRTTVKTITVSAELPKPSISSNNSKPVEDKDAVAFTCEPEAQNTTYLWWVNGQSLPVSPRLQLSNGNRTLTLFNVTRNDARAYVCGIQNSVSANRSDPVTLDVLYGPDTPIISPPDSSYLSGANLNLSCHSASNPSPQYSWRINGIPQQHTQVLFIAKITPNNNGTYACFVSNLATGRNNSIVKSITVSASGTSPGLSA
Put plainly: flow cytometry on MKN45 target cells, antibodies as IgG [top panel]. (In general: A flow cytometer gives signals particle by particle.)

The target of assay [2] is T2, huNABA-avi-his (human, biotinylated in vivo at the avi tag).
T2 construct: immobilized on the Biacore chip; also called NABA-avi-his reagent; N-A1-B3-A2
T2 chain: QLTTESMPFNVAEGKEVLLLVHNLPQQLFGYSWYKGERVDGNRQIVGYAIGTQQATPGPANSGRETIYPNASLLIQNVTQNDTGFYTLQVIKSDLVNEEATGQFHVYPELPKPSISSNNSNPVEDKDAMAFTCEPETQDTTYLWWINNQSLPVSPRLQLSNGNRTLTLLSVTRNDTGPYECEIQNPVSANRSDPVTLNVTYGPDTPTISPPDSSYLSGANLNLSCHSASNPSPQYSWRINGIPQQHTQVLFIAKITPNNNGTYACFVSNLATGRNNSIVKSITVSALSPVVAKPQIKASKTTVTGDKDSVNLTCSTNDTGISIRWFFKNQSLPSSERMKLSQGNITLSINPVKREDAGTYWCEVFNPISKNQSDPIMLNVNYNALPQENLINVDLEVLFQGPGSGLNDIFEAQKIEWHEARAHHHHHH
In words: SPR (Biacore), immobilized NABA-avi-his; bivalent affinity column (bivalent construct not described).

The target in assay [3] is T2, huNABA-avi-his. In words: SPR (Biacore); antigen not given, taken as huNABA-avi-his. In general terms: In SPR one partner is held on a chip, and binding of the other changes the refractive index at the surface.
Assay [4] addresses T2, huNABA-avi-his. Put plainly: SPR (Biacore), Fab over immobilized NABA-avi-his; monovalent affinity column. The procedure:
For the exact analysis of the kinetic parameters, Fabs were purified from bacterial cultures. A 500 ml culture was inoculated and induced with 1 mM IPTG at an OD600 0.9. Bacteria were incubated at 25° C. overnight and harvested by centrifugation. After the incubation of the resuspended pellet for 20 min in 25 ml PPB buffer (30 mM Tris-HCl pH8, 1 mM EDTA, 20% sucrose), bacteria were centrifuged again and the supernatant was harvested. This incubation step was repeated once with 25 ml of a 5 mM MgSO₄ solution. The supernatants of both incubation steps were pooled, filtered and loaded on a IMAC column (His gravitrap, GE Healthcare). Subsequently, the column was washed with 40 volumes. After the elution (500 mM NaCl, 500 mM Imidazole, 20 mM NaH₂PO₄ pH 7.4) the eluate was re-buffered using PD 10 columns (GE Healthcare). The kinetic parameters of the purified Fabs were then studied by SPR-analysis in a dilution row that ranged from 200 nM to 6.25 nM.
Table 11, below, summarizes the affinity constants of the various affinity matured antibody sequences. The parental antibody PR1A3 is listed as well as several light chain and heavy chain combinations of matured and non matured sequences. All values were obtained by Biacore technology by measuring the association (kₒₙ) and dissociation (koff) rate constants of the various soluble antibody constructs in Fab format on a Biacore chip with immobilized NABA-avi-his reagent (SEQ ID NO 158) as the antigen. The affinity constant is labeled with KD.

For assay [5], the target named is T1, membrane-bound human carcinoembryonic …. In words: flow cytometry on CEA-positive MKN45 target cells, antibodies as IgG [bottom panel].

One may read the EC50 (read off the curve) as the concentration giving half of the maximal effect. For orientation: koff means the rate constant with which the complex falls apart. Broadly, the kon is the second-order rate constant of association.

Positions count from the first letter of the chain named.

B1: CH7A / CL1A rH11 antibody (parent heavy chain with affinity matured light chain) (antibody, human IgG1, V domains shown)
VH: QVQLVQSGSELKKPGASVKVSCKASGYTFTEFGMNWVRQAPGQGLEWMGWINTKTGEATYVEEFKGRFVFSLDTSVSTAYLQISSLKAEDTAVYYCARWDFYDYVEAMDYWGQGTTVTVSS
VL: DIQMTQSPSSLSASVGDRVTITCKASQTVSANVAWYQQKPGKAPKLLIYLASYRYRGVPSRFSGSGSGTDFTLTISSLQPEDFATYYCHQYYTYPLFTFGQGTKLEIKR
notes: also called CLA1 rH11
Take B1: the “EC50 (read off the curve)” value in assay [1] was around 0.6 µg/mL.

B2: 1C8 Fab (hc/wt) (Fab, V domains shown)
VH: B1 VH with D103H
VL: DIQMTQSPSSLSASVGDRVTITCKASQNVGTNVAWYQQKPGKAPKLLIYSASYRYSGVPSRFSGSGSGTDFTLTISSLQPEDFATYYCHQYYTYPLFTFGQGTKLEIK
notes: Fab format
As for B2, in assay [2], the Kd was 0.693 nM, the koff was found to be 0.000324 s⁻¹ and the kon worked out at 467000 M⁻¹ s⁻¹. The molecule also had a Kd in assay [3] of 586 nM. Further, in assay [4], the Kd stood at 586 nM, the koff amounted to 0.0076 s⁻¹ and the kon was 12900 M⁻¹ s⁻¹.

B3: Affinity Matured CDRH-3 construct with CDR-H3 SEQ ID NO:35 (WDFAYYLEAMDY) (Fab, V domains shown)
VH: B1 VH with Y102A, D103Y, V105L, V117I
VL: B2 VL
B3: the Kd in assay [3] was found to be 69 nM.

B4: Affinity Matured CDRH-3 construct with CDR-H3 SEQ ID NO:34 (WDFAYYFQTMDY) (Fab, V domains shown)
VH: B1 VH with Y102A, D103Y, V105F, E106Q, A107T
VL: B2 VL
The molecule B4 came in with a Kd in assay [3] of 44 nM.

B5: Affinity Matured CDRH-3 construct with CDR-H3 SEQ ID NO:33 (WDFAHYFQTMDY) (Fab, V domains shown)
VH: B1 VH with Y102A, D103H, V105F, E106Q, A107T
VL: B2 VL
On to B5, for which the Kd in assay [3] worked out at 59 nM.

B6: humanized PR1A3 antibody comprising heavy chain variable region construct CH7A and light chain variable region construct CL1A (antibody, V domains shown)
VH: B1 VH
VL: B2 VL
notes: also called CH7A CL1A; CH7A, CL1A
In the case of B6, the concentration for a half-maximal effect (EC50 (read off the curve)) in assay [5] was around 0.7 µg/mL.

B7: H3 Full (5) 19 Fab (hc/wt) (Fab, V domains shown)
VH: B1 VH with N35S, F101A, Y102F, D103E, E106K, M108L
VL: B2 VL
In assay [2], B7 returned a Kd of 0.19 nM, a koff of 0.000175 s⁻¹ and an association rate constant (kon) of 902000 M⁻¹ s⁻¹.
